The data set concerns the molecule itself. Briefly: SEC. On the technique in general: In gel filtration, larger molecules generally elute earlier.

B1: coiled-coil PlexinA1_(cyto) fusion with the 7-residue linker (other)
chain: VKQLEDKVEELLSKNAHLENEVARLKKLVGSSGSSGSRDADRTLKRLQLQMDNLESRVALECKEAFAELQTDIHELTSDLDGAGIPFLDYRTYAMRVLFPGIEDHPVLKEMEVQANVEKSLTLFGQLLTKKHFLLTFIRTLEAQRSFSMRDRGNVASLIMTALQGEMEYATGVLKQLLSDLIEKNLESKNHPKLLLRRTESVAEKMLTNWFTFLLYKFLKECAGEPLFMLYCAIKQQMEKGPIDAITGEARYSLSEDKLIRQQIDYKTLTLNCVNPEHENAPEVPVKGLNCDTVTQVKEKLLDAVYKGVPYSQRPKAGDMDLEWRQGRMARIILQDEDVTTKIDNDWKRLNTLAHYQVTDGSSVALVPKQTSAYNISNSSTFTKSLSRYESMLRTASSPDSLRSRTPMITPDLESGTKLWHLVKNHDHLDQREGDRGSKMVSEIYLTRLLATKGTLQKFVDDLFETIFSTAHRGSALPLAIKYMFDFLDEQADKHQIHDSDVRHTWKSNCLPLRFWVNVIKNPQFVFDIHKNSITDACLSVVAQTFMDSCSTSEHKLGKDSPSNKLLYAKDIPNYKSWVERYYADIAKMPAISDQDMSAYLAEQSRLHLSQFNSMSALHEIYSYIAKYKDEILVALEKDEQARRQRLRSKLEQVVDTMALSS
With B1, the binding result is “binds”.

B2: CC-L4-PlexinA1_(cyto) (other)
chain: VKQLEDKVEELLSKNAHLENEVARLKKLVGSSGSRDADRTLKRLQLQMDNLESRVALECKEAFAELQTDIHELTSDLDGAGIPFLDYRTYAMRVLFPGIEDHPVLKEMEVQANVEKSLTLFGQLLTKKHFLLTFIRTLEAQRSFSMRDRGNVASLIMTALQGEMEYATGVLKQLLSDLIEKNLESKNHPKLLLRRTESVAEKMLTNWFTFLLYKFLKECAGEPLFMLYCAIKQQMEKGPIDAITGEARYSLSEDKLIRQQIDYKTLTLNCVNPEHENAPEVPVKGLNCDTVTQVKEKLLDAVYKGVPYSQRPKAGDMDLEWRQGRMARIILQDEDVTTKIDNDWKRLNTLAHYQVTDGSSVALVPKQTSAYNISNSSTFTKSLSRYESMLRTASSPDSLRSRTPMITPDLESGTKLWHLVKNHDHLDQREGDRGSKMVSEIYLTRLLATKGTLQKFVDDLFETIFSTAHRGSALPLAIKYMFDFLDEQADKHQIHDSDVRHTWKSNCLPLRFWVNVIKNPQFVFDIHKNSITDACLSVVAQTFMDSCSTSEHKLGKDSPSNKLLYAKDIPNYKSWVERYYADIAKMPAISDQDMSAYLAEQSRLHLSQFNSMSALHEIYSYIAKYKDEILVALEKDEQARRQRLRSKLEQVVDTMALSS
As for B2, the binding result is given as “binds”.

B3: coiled-coil PlexinA1_(cyto) fusion with the 1-residue linker (other)
chain: VKQLEDKVEELLSKNAHLENEVARLKKLVGSRDADRTLKRLQLQMDNLESRVALECKEAFAELQTDIHELTSDLDGAGIPFLDYRTYAMRVLFPGIEDHPVLKEMEVQANVEKSLTLFGQLLTKKHFLLTFIRTLEAQRSFSMRDRGNVASLIMTALQGEMEYATGVLKQLLSDLIEKNLESKNHPKLLLRRTESVAEKMLTNWFTFLLYKFLKECAGEPLFMLYCAIKQQMEKGPIDAITGEARYSLSEDKLIRQQIDYKTLTLNCVNPEHENAPEVPVKGLNCDTVTQVKEKLLDAVYKGVPYSQRPKAGDMDLEWRQGRMARIILQDEDVTTKIDNDWKRLNTLAHYQVTDGSSVALVPKQTSAYNISNSSTFTKSLSRYESMLRTASSPDSLRSRTPMITPDLESGTKLWHLVKNHDHLDQREGDRGSKMVSEIYLTRLLATKGTLQKFVDDLFETIFSTAHRGSALPLAIKYMFDFLDEQADKHQIHDSDVRHTWKSNCLPLRFWVNVIKNPQFVFDIHKNSITDACLSVVAQTFMDSCSTSEHKLGKDSPSNKLLYAKDIPNYKSWVERYYADIAKMPAISDQDMSAYLAEQSRLHLSQFNSMSALHEIYSYIAKYKDEILVALEKDEQARRQRLRSKLEQVVDTMALSS
As to B3, the binding result is “binds”.

These data come from PMC3413289 (Science signaling, 2012).
